According to US7888090B2, “Mutants of O6-alkylguanine-DNA alkyltransferase” (Ecole Polytechnique Federale de Lausanne, priority 2004, dated 2011):

B1: Cys62Ala, Lys125Ala, Ala127Thr, Arg128Ala, Asn157Gly, Ser159Glu: hAGT mutant with the listed mutations (protein, UniProt P16455 1-207, looked up, variant C62A K125A A127T R128A N157G S159E)
Methylated-DNA--protein-cystei …: MDKDCEMKRTTLDSPLGKLELSGCEQGLHEIKLLGKGTSAADAVEVPAPAAVLGGPEPLMQATAWLNAYFHQPEAIEEFPVPALHHPVFQQESFTRQVLWKLLKVVKFGEVISYQQLAALAGNPAATAAVGGAMRGNPVPILIPCHRVVCSSGAVGGYEGGLAVKEWLLAHEGHRLGKPGLGGSSGLAGAWLKGAGATSGSPPAGRN
B2: truncated PGEG-hAGT: PGEG-hAGT (Asn157Gly, Ser159Glu) truncated after codon 182 (protein, UniProt P16455 1-207, looked up, variant N157G S159E del183-207)
Methylated-DNA--protein-cystei …: MDKDCEMKRTTLDSPLGKLELSGCEQGLHEIKLLGKGTSAADAVEVPAPAAVLGGPEPLMQCTAWLNAYFHQPEAIEEFPVPALHHPVFQQESFTRQVLWKLLKVVKFGEVISYQQLAALAGNPKAARAVGGAMRGNPVPILIPCHRVVCSSGAVGGYEGGLAVKEWLLAHEGHRLGKPGLG
B3: Lys32lle, Leu33Phe, Gly182Val: AGT mutant having all mutations of AGTM and additionally those listed (protein, UniProt P16455 1-207, looked up, variant K32I L33F C62A Q115S Q116H K125A A127T R128A G131K G132T M134L R135S C150N S151I S152N N157G S159E G182V del183-207)
Methylated-DNA--protein-cystei …: MDKDCEMKRTTLDSPLGKLELSGCEQGLHEIIFLGKGTSAADAVEVPAPAAVLGGPEPLMQATAWLNAYFHQPEAIEEFPVPALHHPVFQQESFTRQVLWKLLKVVKFGEVISYSHLAALAGNPAATAAVKTALSGNPVPILIPCHRVVNINGAVGGYEGGLAVKEWLLAHEGHRLGKPGLV
B4: Lys104Glu, Thr127Ala, Ala154Thr: AGT mutant having all mutations of AGTM and additionally those listed (protein, UniProt P16455 1-207, looked up, variant C62A K104E Q115S Q116H K125A R128A G131K G132T M134L R135S C150N S151I S152N A154T N157G S159E del183-207)
Methylated-DNA--protein-cystei …: MDKDCEMKRTTLDSPLGKLELSGCEQGLHEIKLLGKGTSAADAVEVPAPAAVLGGPEPLMQATAWLNAYFHQPEAIEEFPVPALHHPVFQQESFTRQVLWKLLEVVKFGEVISYSHLAALAGNPAAAAAVKTALSGNPVPILIPCHRVVNINGTVGGYEGGLAVKEWLLAHEGHRLGKPGLG
B5: Lys8Thr, Thr127Ala, Ala154Thr, His174Arg: AGT mutant having all mutations of AGTM and additionally those listed (protein, UniProt P16455 1-207, looked up, variant K8T C62A Q115S Q116H K125A R128A G131K G132T M134L R135S C150N S151I S152N A154T N157G S159E H174R del183-207)
Methylated-DNA--protein-cystei …: MDKDCEMTRTTLDSPLGKLELSGCEQGLHEIKLLGKGTSAADAVEVPAPAAVLGGPEPLMQATAWLNAYFHQPEAIEEFPVPALHHPVFQQESFTRQVLWKLLKVVKFGEVISYSHLAALAGNPAAAAAVKTALSGNPVPILIPCHRVVNINGTVGGYEGGLAVKEWLLAHEGRRLGKPGLG
B6: Lys32lle, Leu33Phe, Asn150Gly, lle151Gly, Asn152Asp, Ala154Asp: AGT mutant having all mutations of AGTM and additionally those listed (protein, UniProt P16455 1-207, looked up, variant K32I L33F C62A Q115S Q116H K125A A127T R128A G131K G132T M134L R135S C150G S151G S152D A154D N157G S159E del183-207)
Methylated-DNA--protein-cystei …: MDKDCEMKRTTLDSPLGKLELSGCEQGLHEIIFLGKGTSAADAVEVPAPAAVLGGPEPLMQATAWLNAYFHQPEAIEEFPVPALHHPVFQQESFTRQVLWKLLKVVKFGEVISYSHLAALAGNPAATAAVKTALSGNPVPILIPCHRVVGGDGDVGGYEGGLAVKEWLLAHEGHRLGKPGLG
B7: Ala154Thr: AGT mutant having all mutations of AGTM and additionally those listed (protein, UniProt P16455 1-207, looked up, variant C62A Q115S Q116H K125A A127T R128A G131K G132T M134L R135S C150N S151I S152N A154T N157G S159E del183-207)
Methylated-DNA--protein-cystei …: MDKDCEMKRTTLDSPLGKLELSGCEQGLHEIKLLGKGTSAADAVEVPAPAAVLGGPEPLMQATAWLNAYFHQPEAIEEFPVPALHHPVFQQESFTRQVLWKLLKVVKFGEVISYSHLAALAGNPAATAAVKTALSGNPVPILIPCHRVVNINGTVGGYEGGLAVKEWLLAHEGHRLGKPGLG
B8: Asn150Val, lle151Asn, Asn152Asp, Gly153Leu, Ala154Asp: AGT mutant having all mutations of AGTM and additionally those listed (protein, UniProt P16455 1-207, looked up, variant C62A Q115S Q116H K125A A127T R128A G131K G132T M134L R135S C150V S151N S152D G153L A154D N157G S159E del183-207)
Methylated-DNA--protein-cystei …: MDKDCEMKRTTLDSPLGKLELSGCEQGLHEIKLLGKGTSAADAVEVPAPAAVLGGPEPLMQATAWLNAYFHQPEAIEEFPVPALHHPVFQQESFTRQVLWKLLKVVKFGEVISYSHLAALAGNPAATAAVKTALSGNPVPILIPCHRVVVNDLDVGGYEGGLAVKEWLLAHEGHRLGKPGLG
B9: Asn150Glu, lle151Gly, Asn152Arg, Gly153Glu, Ala154Arg: AGT mutant having all mutations of AGTM and additionally those listed (protein, UniProt P16455 1-207, looked up, variant C62A Q115S Q116H K125A A127T R128A G131K G132T M134L R135S C150E S151G S152R G153E A154R N157G S159E del183-207)
Methylated-DNA--protein-cystei …: MDKDCEMKRTTLDSPLGKLELSGCEQGLHEIKLLGKGTSAADAVEVPAPAAVLGGPEPLMQATAWLNAYFHQPEAIEEFPVPALHHPVFQQESFTRQVLWKLLKVVKFGEVISYSHLAALAGNPAATAAVKTALSGNPVPILIPCHRVVEGRERVGGYEGGLAVKEWLLAHEGHRLGKPGLG
B10: Asn150Glu, lle151Ser, Asn152His, Ala154Lys: AGT mutant having all mutations of AGTM and additionally those listed (protein, UniProt P16455 1-207, looked up, variant C62A Q115S Q116H K125A A127T R128A G131K G132T M134L R135S C150E S152H A154K N157G S159E del183-207)
Methylated-DNA--protein-cystei …: MDKDCEMKRTTLDSPLGKLELSGCEQGLHEIKLLGKGTSAADAVEVPAPAAVLGGPEPLMQATAWLNAYFHQPEAIEEFPVPALHHPVFQQESFTRQVLWKLLKVVKFGEVISYSHLAALAGNPAATAAVKTALSGNPVPILIPCHRVVESHGKVGGYEGGLAVKEWLLAHEGHRLGKPGLG
B11: Asn150Val, lle151Ser, Asn152Arg, Gly153Asp, Ala154Asp: AGT mutant having all mutations of AGTM and additionally those listed (protein, UniProt P16455 1-207, looked up, variant C62A Q115S Q116H K125A A127T R128A G131K G132T M134L R135S C150V S152R G153D A154D N157G S159E del183-207)
Methylated-DNA--protein-cystei …: MDKDCEMKRTTLDSPLGKLELSGCEQGLHEIKLLGKGTSAADAVEVPAPAAVLGGPEPLMQATAWLNAYFHQPEAIEEFPVPALHHPVFQQESFTRQVLWKLLKVVKFGEVISYSHLAALAGNPAATAAVKTALSGNPVPILIPCHRVVVSRDDVGGYEGGLAVKEWLLAHEGHRLGKPGLG
B12: Asn150Glu, lle151Gly, Asn152Trp, Gly153Asn, Ala154Glu: AGT mutant having all mutations of AGTM and additionally those listed (protein, UniProt P16455 1-207, looked up, variant C62A Q115S Q116H K125A A127T R128A G131K G132T M134L R135S C150E S151G S152W G153N A154E N157G S159E del183-207)
Methylated-DNA--protein-cystei …: MDKDCEMKRTTLDSPLGKLELSGCEQGLHEIKLLGKGTSAADAVEVPAPAAVLGGPEPLMQATAWLNAYFHQPEAIEEFPVPALHHPVFQQESFTRQVLWKLLKVVKFGEVISYSHLAALAGNPAATAAVKTALSGNPVPILIPCHRVVEGWNEVGGYEGGLAVKEWLLAHEGHRLGKPGLG
B13: Lys32lle, Leu33Phe, Ala154Thr: AGT mutant having all mutations of AGTM and additionally those listed (protein, UniProt P16455 1-207, looked up, variant C62A Q115S Q116H K125A A127T R128A G131K G132T M134L R135S C150N S151I S152N N157G S159E del183-207 K32I L33F A154T)
Methylated-DNA--protein-cystei …: MDKDCEMKRTTLDSPLGKLELSGCEQGLHEIIFLGKGTSAADAVEVPAPAAVLGGPEPLMQATAWLNAYFHQPEAIEEFPVPALHHPVFQQESFTRQVLWKLLKVVKFGEVISYSHLAALAGNPAATAAVKTALSGNPVPILIPCHRVVNINGTVGGYEGGLAVKEWLLAHEGHRLGKPGLG
B14: Asn150Glu, lle151Gly, Asn152Glu, Ala154Arg: AGT mutant having all mutations of AGTM and additionally those listed (protein, UniProt P16455 1-207, looked up, variant C62A Q115S Q116H K125A A127T R128A G131K G132T M134L R135S C150E S151G S152E A154R N157G S159E del183-207)
Methylated-DNA--protein-cystei …: MDKDCEMKRTTLDSPLGKLELSGCEQGLHEIKLLGKGTSAADAVEVPAPAAVLGGPEPLMQATAWLNAYFHQPEAIEEFPVPALHHPVFQQESFTRQVLWKLLKVVKFGEVISYSHLAALAGNPAATAAVKTALSGNPVPILIPCHRVVEGEGRVGGYEGGLAVKEWLLAHEGHRLGKPGLG

Experiment: Activity assay with biotinylated O^6-benzylguanine (BG-Bt), Western blotting
Assay type: biochemical
Conditions: statement in words
Protocol: Activity towards O^6-benzylguanine substrates is measured as described by Juillerat et al., Chem Biol 10:313-317, 2003.
Activity assay: Purified mutated GST-AGT is incubated in vitro with a biotinylated O^6-benzylguanine (BG-Bt, substance 3a of Juillerat et al., Chem Biol 10:313-317, 2003). In a total reaction volume of 80 […]I, 0.2 µM GST-AGT are incubated with 1 µM substrate in 50 mM HEPES pH 7.2 and 1 mM DTT at room temperature. At several points of time an aliquot is quenched with 1 mM O^6-benzylguanine (Sigma) in SDS-Laemmli buffer and subjected to Western blotting analysis (neutravidin-peroxidase conjugate (PIERCE), Renaissance reagent plus (NEN)). The intensity of the corresponding bands is quantified by a Kodak Image Station 440.

| Molecule | activity towards O^6-benzylguanine substrates |
| --- | --- |
| B1 | retains activity |
| B2 | retains activity |

Experiment: BG-Cy3 activity assay (reaction rate of AGT mutants)
Assay type: biochemical
Conditions: divided by value for wild type hAGT; periplasmic extracts (x.)
Protocol: Reactivity against DNA-based substrates measured with a BG-Cy3 assay: BG-Cy3 is prepared by reacting the previously described O^6-(4-aminomethyl-benzyl)guanine (Keppler et al., NatureBiotechnol. 21:86-89, 2003) with the commercially available N-hydroxysuccinimide ester of Cy3, (Cy3-NHS, Amersham). The coupling reaction is performed at ambient temperature in N,N-dimethylformamide in the presence of 1 eq. of triethylamine. The BG-Cy3 conjugate is purified by reversed-phase HPLC on a C18-column by using linear gradients from 0.1% trifluoroacetic acid to acetonitrile. After solvent evaporation BG-Cy3 is dissolved in dimethyl sulfoxide and stored at −20° C. For measuring the reactivity with DNA-based substrates, a reaction mixture containing different concentrations (0 to 5 µM) of oligonucleotide SEQ ID NO:2 (modified in position 14), GST-AGT fusion protein at 0.2 µM and BG-Cy3 at […] in reaction buffer (50 mM HEPES, pH 7.2, 1 mM DTT, 200 mg/ml BSA) is incubated in microtiterplates. Fluorescence of the Cy3 derivative (excitation 519 nm, emission at 572 nm) is measured on a Spectramax Gemini plate reader (Molecular Devices).
The amplified products are cloned in fusion to the g3 gene of filamentous phage in the vector pAK100 via SfiI restriction sites. The resulting gene libraries are used for phage display as described under Example 4. The mutants of the libraries are selected with 5 to 50 nM of BG-Bt for 10 min. Selected mutants are subcloned into pGEX using the primers SEQ ID NO:3 and SEQ ID NO:13. The reaction rate of mutant AGTs is determined as described in Example 6, Reactivity against DNA-based substrates (BG-Cy3 assay).
For the activity assay purified GST fusion proteins were used for mutants marked with “p.” (prepared as described under Example 1); periplasmic extracts were used for mutants marked with “x.” (prepared as described under Example 2).

| Molecule | Relative reaction rate |
| --- | --- |
| B3 | 9.48 |
| B4 | 12.34 |
| B5 | 15.66 |

Same assay, conditions: divided by value for wild type hAGT; purified GST fusion proteins (p.)

| Molecule | Relative reaction rate |
| --- | --- |
| B6 | 45.45 |
| B7 | 14.90 |
| B8 | 15.67 |
| B9 | 11.20 |
| B10 | 15.43 |
| B11 | 21.26 |
| B12 | 11.97 |
| B13 | 33.89 |
| B14 | 18.42 |
